Experiments:
Assay in all cases: cell-based or functional assay
[1] = target: HIV-1 Env of isolate MGRM-C-004 (subtype C) (HIV-1)
[2] = target: HIV-1 Env of isolate MGRM-C-006 (subtype C) (HIV-1)
[3] = target: HIV-1 Env of isolate MGRM-C-013 (subtype C) (HIV-1)
[4] = target: HIV-1 Env of isolate MGRM-C-005 (subtype C) (HIV-1)
[5] = target: HIV-1 Env of isolate MGRM-C-020 (subtype C) (HIV-1)
[6] = target: HIV-1 Env of isolate MGRM-G-025 (subtype G), on pseudovirus (HIV-1)
[7] = target: HIV-1 Env of isolate MGRM-C-017 (subtype C) (HIV-1)
[8] = target: HIV-1 Env of isolate MGRM-G-014 (subtype G), on pseudovirus (HIV-1)
[9] = target: aMLV envelope, on pseudovirus (negative control)
[10] = target: HIV-1 Env of isolate MGRM-C-024 (subtype C) (HIV-1)
[11] = target: HIV-1 Env of isolate MGRM-C-027 (subtype C) (HIV-1)
[12] = target: HIV-1 Env of isolate MGRM-G-016 (subtype G), on pseudovirus (HIV-1)
[13] = target: HIV-1 Env of isolate 97ZA012 (subtype C) (HIV-1)
[14] = target: HIV-1 JR-CSF Env N478A (HIV-1 JR-CSF) (UniProt P20871)
[15] = target: HIV-1 Env of isolate MGRM-C-025 (subtype C) (HIV-1)
[16] = target: HIV-1 Env of isolate MGRM-G-017 (subtype G), on pseudovirus (HIV-1)
[17] = target: HIV-1 Env of isolate MGRM-G-011 (subtype G), on pseudovirus (HIV-1)
[18] = target: HIV-1 Env of isolate 98IN022 (subtype C) (HIV-1)
[19] = target: HIV-1 Env of isolate MGRM-G-004 (subtype G), on pseudovirus (HIV-1)
[20] = target: HIV-1 JR-CSF Env D477A (HIV-1 JR-CSF) (UniProt P20871)
[21] = target: HIV-1 Env of isolate MGRM-G-006 (subtype G), on pseudovirus (HIV-1)
[22] = target: HIV-1 Env of isolate MGRM-C-026 (subtype C) (HIV-1)
[23] = target: HIV-1 Env of isolate MGRM-G-009 (subtype G), on pseudovirus (HIV-1)
[24] = target: HIV-1 Env of isolate MGRM-C-010 (subtype C) (HIV-1)
[25] = target: HIV-1 Env of isolate MGRM-C-028 (subtype C) (HIV-1)
[26] = target: HIV-1 Env of isolate MGRM-C-012 (subtype C) (HIV-1)
[27] = target: HIV-1 Env of isolate 93MW959 (subtype C) (HIV-1)
[28] = target: HIV-1 Env of isolate MGRM-C-001 (subtype C) (HIV-1)
[29] = target: HIV-1 Env of isolate MGRM-C-015 (subtype C) (HIV-1)
[30] = target: HIV-1 Env of isolate MGRM-C-009 (subtype C) (HIV-1)
[31] = target: HIV-1 Env of isolate MGRM-G-028 (subtype G), on pseudovirus (HIV-1)
[32] = target: HIV-1 Env of isolate MGRM-G-019 (subtype G), on pseudovirus (HIV-1)
[33] = target: HIV-1 Env of isolate MGRM-G-013 (subtype G), on pseudovirus (HIV-1)
[34] = target: HIV-1 Env of isolate MGRM-C-019 (subtype C) (HIV-1)
[35] = target: HIV-1 Env of isolate MGRM-C-023 (subtype C) (HIV-1)
[36] = target: HIV-1 Env of isolate MGRM-C-008 (subtype C) (HIV-1)
[37] = target: HIV-1 Env of isolate MGRM-C-022 (subtype C) (HIV-1)
[38] = target: HIV-1 Env of isolate MGRM-C-007 (subtype C) (HIV-1)
[39] = target: HIV-1 Env of isolate MGRM-C-014 (subtype C) (HIV-1)
[40] = target: HIV-1 Env of isolate MGRM-G-001 (subtype G), on pseudovirus (HIV-1)
[41] = target: HIV-1 Env of isolate MGRM-G-027 (subtype G), on pseudovirus (HIV-1)
[42] = target: HIV-1 Env of isolate MGRM-G-024 (subtype G), on pseudovirus (HIV-1)
[43] = target: HIV-1 Env of isolate MGRM-C-002 (subtype C) (HIV-1)
[44] = target: HIV-1 Env of isolate MGRM-G-015 (subtype G), on pseudovirus (HIV-1)
[45] = target: HIV-1 JR-CSF Env R476A (HIV-1 JR-CSF) (UniProt P20871)

B1: PGT-125 (antibody, V domains shown)
VH: QSQLQESGPRLVEASETLSLTCNVSGESTGACTYFWGWVRQAPGKGLEWIGSLSHCQSFWGSGWTFHNPSLKSRLTISLDTPKNQVFLKLTSLTAADTATYYCARFDGEVLVYNHWPKPAWVDLWGRGIPVTVSS
VL: QSALTQPPSASGSPGQSITISCNGTATNFVSWYQQFPDKAPKLIIFGVDKRPPGVPDRFSGSRSGTTASLTVSRLQTDDEAVYYCGSLVGNWDVIFGGGTTLTVL
For B1, the IC50 (µg/mL), pseudovirus neutralization [1] was 1.82 µg/mL, the IC50 (µg/mL), pseudovirus neutralization [2] was 0.015 µg/mL and the IC50 (µg/mL), pseudovirus neutralization [3] was > 50 µg/mL. The IC50 (µg/mL), pseudovirus neutralization [4] was 2.09 µg/mL, the IC50 (µg/mL), pseudovirus neutralization [5] was > 50 µg/mL and the IC50 (µg/mL), neutralization of pseudovirus [6] was > 50 µg/mL. The IC50 (µg/mL), pseudovirus neutralization [7] was 2.36 µg/mL, the IC50 (µg/mL), neutralization of pseudovirus [8] was 0.007 µg/mL and the IC50 (µg/mL), neutralization of pseudovirus [9] was > 50 µg/mL. For the same binder, the IC50 (µg/mL), pseudovirus neutralization [10] was > 50 µg/mL, the IC50 (µg/mL), pseudovirus neutralization [11] was > 50 µg/mL and the IC50 (µg/mL), neutralization of pseudovirus [12] was > 50 µg/mL. The IC50 (µg/mL), pseudovirus neutralization [13] was 2.46 µg/mL, the Fold IC50 increase relative to wild-type [14] was 1.5 fold and the IC50 (µg/mL), pseudovirus neutralization [15] was 42.5 µg/mL. The IC50 (µg/mL), neutralization of pseudovirus [16] was > 50 µg/mL, the IC50 (µg/mL), neutralization of pseudovirus [17] was > 50 µg/mL and the IC50 (µg/mL), pseudovirus neutralization [18] was 22.1 µg/mL. The IC50 (µg/mL), neutralization of pseudovirus [19] was > 50 µg/mL, the Fold IC50 increase relative to wild-type [20] was 3.4 fold and the IC50 (µg/mL), neutralization of pseudovirus [21] was > 50 µg/mL. For the same binder, the IC50 (µg/mL), pseudovirus neutralization [22] was 0.005 µg/mL, the IC50 (µg/mL), neutralization of pseudovirus [23] was > 50 µg/mL and the IC50 (µg/mL), pseudovirus neutralization [24] was > 50 µg/mL. For the same binder, the IC50 (µg/mL), pseudovirus neutralization [25] was 14 µg/mL, the IC50 (µg/mL), pseudovirus neutralization [26] was > 50 µg/mL and the IC50 (µg/mL), pseudovirus neutralization [27] was 37.5 µg/mL. For the same binder, the IC50 (µg/mL), pseudovirus neutralization [28] was > 50 µg/mL, the IC50 (µg/mL), pseudovirus neutralization [29] was > 50 µg/mL and the IC50 (µg/mL), pseudovirus neutralization [30] was > 50 µg/mL. For the same binder, the IC50 (µg/mL), neutralization of pseudovirus [31] was 0.012 µg/mL, the IC50 (µg/mL), neutralization of pseudovirus [32] was > 50 µg/mL and the IC50 (µg/mL), neutralization of pseudovirus [33] was > 50 µg/mL. For the same binder, the IC50 (µg/mL), pseudovirus neutralization [34] was 0.13 µg/mL, the IC50 (µg/mL), pseudovirus neutralization [35] was 1.31 µg/mL and the IC50 (µg/mL), pseudovirus neutralization [36] was > 50 µg/mL. The IC50 (µg/mL), pseudovirus neutralization [37] was 1.23 µg/mL, the IC50 (µg/mL), pseudovirus neutralization [38] was > 50 µg/mL and the IC50 (µg/mL), pseudovirus neutralization [39] was > 50 µg/mL. The IC50 (µg/mL), neutralization of pseudovirus [40] was 0.033 µg/mL, the IC50 (µg/mL), neutralization of pseudovirus [41] was 34.4 µg/mL and the IC50 (µg/mL), neutralization of pseudovirus [42] was > 50 µg/mL. For the same binder, the IC50 (µg/mL), pseudovirus neutralization [43] was 0.008 µg/mL and the IC50 (µg/mL), neutralization of pseudovirus [44] was > 50 µg/mL.

B2: PGT-123 (antibody, V domains shown)
VH: QLHLQESGPGLVKPPETLSLTCSVSGASINDAYWSWIRQSPGKRPEWVGYVHHSGDTNYNPSLKRRVTFSLDTAKNEVSLKLVDLTAADSATYFCARALHGKRIYGIVALGELFTYFYMDVWGKGTAVTVSS
VL: SSMSVSPGETAKISCGKESIGSRAVQWYQQKPGQPPSLIIYNNQDRPAGVPERFSASPDFRPGTTATLTITNVDAEDEADYYCHIYDARGGTNWVFDRGTTLTVL
B2 gave an IC50 (µg/mL), pseudovirus neutralization [1] of 0.009 µg/mL, an IC50 (µg/mL), pseudovirus neutralization [2] of 0.021 µg/mL and an IC50 (µg/mL), pseudovirus neutralization [3] of 14.9 µg/mL. For the same binder, the IC50 (µg/mL), pseudovirus neutralization [4] was 0.012 µg/mL, the IC50 (µg/mL), pseudovirus neutralization [5] was > 50 µg/mL and the IC50 (µg/mL), neutralization of pseudovirus [6] was 0.046 µg/mL. For the same binder, the IC50 (µg/mL), pseudovirus neutralization [7] was 0.01 µg/mL, the IC50 (µg/mL), neutralization of pseudovirus [8] was 0.005 µg/mL and the IC50 (µg/mL), neutralization of pseudovirus [9] was > 50 µg/mL. For the same binder, the IC50 (µg/mL), pseudovirus neutralization [10] was 0.195 µg/mL, the IC50 (µg/mL), pseudovirus neutralization [11] was 0.02 µg/mL and the IC50 (µg/mL), neutralization of pseudovirus [12] was > 50 µg/mL. It also gave an IC50 (µg/mL), pseudovirus neutralization [13] of 0.002 µg/mL, an IC50 (µg/mL), pseudovirus neutralization [15] of 13.3 µg/mL and an IC50 (µg/mL), neutralization of pseudovirus [16] of 0.026 µg/mL. It also gave an IC50 (µg/mL), neutralization of pseudovirus [17] of 14.9 µg/mL, an IC50 (µg/mL), pseudovirus neutralization [18] of 0.011 µg/mL and an IC50 (µg/mL), neutralization of pseudovirus [19] of 0.181 µg/mL. For the same binder, the Fold IC50 increase relative to wild-type [20] was 2.3 fold, the IC50 (µg/mL), neutralization of pseudovirus [21] was > 50 µg/mL and the IC50 (µg/mL), pseudovirus neutralization [22] was 0.001 µg/mL. For the same binder, the IC50 (µg/mL), neutralization of pseudovirus [23] was 33.5 µg/mL, the IC50 (µg/mL), pseudovirus neutralization [24] was > 50 µg/mL and the IC50 (µg/mL), pseudovirus neutralization [25] was 0.402 µg/mL. For the same binder, the IC50 (µg/mL), pseudovirus neutralization [26] was 0.605 µg/mL, the IC50 (µg/mL), pseudovirus neutralization [27] was 0.011 µg/mL and the IC50 (µg/mL), pseudovirus neutralization [28] was 42.4 µg/mL. The IC50 (µg/mL), pseudovirus neutralization [29] was 13.1 µg/mL, the IC50 (µg/mL), pseudovirus neutralization [30] was > 50 µg/mL and the IC50 (µg/mL), neutralization of pseudovirus [31] was 0.008 µg/mL. The IC50 (µg/mL), neutralization of pseudovirus [32] was 0.008 µg/mL, the IC50 (µg/mL), neutralization of pseudovirus [33] was 3.97 µg/mL and the IC50 (µg/mL), pseudovirus neutralization [34] was > 50 µg/mL. For the same binder, the IC50 (µg/mL), pseudovirus neutralization [35] was 0.011 µg/mL, the IC50 (µg/mL), pseudovirus neutralization [36] was 0.011 µg/mL and the IC50 (µg/mL), pseudovirus neutralization [37] was 0.01 µg/mL. For the same binder, the IC50 (µg/mL), pseudovirus neutralization [38] was 0.547 µg/mL, the Fold IC50 increase relative to wild-type [45] was 2 fold and the IC50 (µg/mL), pseudovirus neutralization [39] was 1 µg/mL. The IC50 (µg/mL), neutralization of pseudovirus [40] was 0.009 µg/mL, the IC50 (µg/mL), neutralization of pseudovirus [41] was 0.182 µg/mL and the IC50 (µg/mL), neutralization of pseudovirus [42] was 0.032 µg/mL. For the same binder, the IC50 (µg/mL), pseudovirus neutralization [43] was 0.01 µg/mL and the IC50 (µg/mL), neutralization of pseudovirus [44] was > 50 µg/mL.

Reference: patent US20240132578A1
